Measured values from publication PMC6509359 (Molecular Cell, 2019).
Values joined by “and” are separate entries in the source; they are usually repeats but may differ in a detail not shown here. Equal values may be shown once.

How the values were obtained:
[1] = target: the molecule itself; experiment: SEC-MALS; 100 μL of 1-2 mg/mL protein on Superdex 200 10/300, 0.5 mL/min, PBS + 2 mM DTT
[2] = target: T1, ubiquitin-propargylamine, Ub(1-75)-PA (UniProt P0CG48 1-75, C-terminal propargylamine (PA) after residue 75); experiment: covalent reaction with the ubiquitin-propargylamine probe; 1.3 eq of His6-3C-Ub(1-75)-PA, 1–4 h at 4°C; complex purified over HisTrap by the probe's tag, 3C protease, gel filtration; details: both partners purified
T1 construct: ubiquitin residues 1-75, C-terminus carries propargylamine (reactive probe); reacts covalently with the DUB; the His6-3C tag was on the probe during the reaction and the HisTrap step and was cut off with 3C protease before gel filtration; also called Ub-PA; His6-3C-Ub(1-75)-PA; source: assembled as described previously (Gersch et al., 2017), > 95% purity by intact protein mass spectrometry; not …

[3] = target: the molecule itself; experiment: cell-based or functional assay
[4] = target: the molecule itself; experiment: not stated; oligomeric state of the purified deletion construct, Figure S4F (legend not shown)
[5] = target: the molecule itself; experiment: SEC-MALS; five-fold dilution series (1 mg/mL, 0.2 mg/mL, 0.04 mg/mL sample concentration)
[6] = target: the molecule itself; experiment: SAXS; SEC-SAXS, 45 μL at 3-12 mg/mL, Shodex KW-403, buffer E (20 mM Tris pH 8.0, 100 mM NaCl, 5 mM DTT); compared with curves calculated from the crystal structures
[7] = target: the molecule itself; experiment: not stated; oligomeric states of purified orthologs and of full-length proteins, Figures S7A, S7B and S3J

B1: Human USP25 (157-720) (domain or fragment, UniProt Q9UHP3 157-720, looked up)
chain: NPYDRKRQDKAPVGLKNVGNTCWFSAVIQSLFNLLEFRRLVLNYKPPSNAQDLPRNQKEHRNLPFMRELRYLFALLVGTKRKYVDPSRAVEILKDAFKSNDSQQQDVSEFTHKLLDWLEDAFQMKAEEETDEEKPKNPMVELFYGRFLAVGVLEGKKFENTEMFGQYPLQVNGFKDLHECLEAAMIEGEIESLHSENSGKSGQEHWFTELPPVLTFELSRFEFNQALGRPEKIHNKLEFPQVLYLDRYMHRNREITRIKREEIKRLKDYLTVLQQRLERYLSYGSGPKRFPLVDVLQYALEFASSKPVCTSPVDDIDASSPPSGSIPSQTLPSTTEQQGALSSELPSTSPSSVAAISSRSVIHKPFTQSRIPPDLPMHPAPRHITEEELSVLESCLHRWRTEIENDTRDLQESISRIHRTIELMYSDKSMIQVPYRLHAVLVHEGQANAGHYWAYIFDHRESRWMKYNDIAVTKSSWEELVRDSFGGYRNASAYCLMYINDKAQFLIQEEFNKETGQPLVGIETLPPDLRDFVEEDNQRFEKELEEWDAQLAQKALQEKLLASQ
notes: also called USP25 catalytic domain; source: E. coli Rosetta2(DE3)pLacI, purified (HisTrap, 3C protease, Resource Q, size exclusion)
In the case of B1, the “stoichiometry N” value [1] is reported as 4 and the binding result [2] is reported as “binds”.

B2: Human USP25 (157-Δ(465-535)-714) (domain or fragment)
chain: NPYDRKRQDKAPVGLKNVGNTCWFSAVIQSLFNLLEFRRLVLNYKPPSNAQDLPRNQKEHRNLPFMRELRYLFALLVGTKRKYVDPSRAVEILKDAFKSNDSQQQDVSEFTHKLLDWLEDAFQMKAEEETDEEKPKNPMVELFYGRFLAVGVLEGKKFENTEMFGQYPLQVNGFKDLHECLEAAMIEGEIESLHSENSGKSGQEHWFTELPPVLTFELSRFEFNQALGRPEKIHNKLEFPQVLYLDRYMHRNREITRIKREEIKRLKDYLTVLQQRLERYLSYGSGPKRFPLVDVLQYALEFASSKPVGSGSGSAPRHITEEELSVLESCLHRWRTEIENDTRDLQESISRIHRTIELMYSDKSMIQVPYRLHAVLVHEGQANAGHYWAYIFDHRESRWMKYNDIAVTKSSWEELVRDSFGGYRNASAYCLMYINDKAQFLIQEEFNKETGQPLVGIETLPPDLRDFVEEDNQRFEKELEEWDAQLAQKALQE
notes: USP25, human, residues 536-714; source: E. coli Rosetta2(DE3)pLacI, purified (HisTrap, 3C protease, Resource Q, size exclusion)
With B2 the “Ub-KG-TAMRA cleavage activity against the tetrameric wild-type USP25 (157-714)” value [3] was 6 fold and the “stoichiometry N” value [4] was 2.

B3: Human USP25 (157-1055) (domain or fragment, UniProt Q9UHP3 157-1055, looked up)
chain: NPYDRKRQDKAPVGLKNVGNTCWFSAVIQSLFNLLEFRRLVLNYKPPSNAQDLPRNQKEHRNLPFMRELRYLFALLVGTKRKYVDPSRAVEILKDAFKSNDSQQQDVSEFTHKLLDWLEDAFQMKAEEETDEEKPKNPMVELFYGRFLAVGVLEGKKFENTEMFGQYPLQVNGFKDLHECLEAAMIEGEIESLHSENSGKSGQEHWFTELPPVLTFELSRFEFNQALGRPEKIHNKLEFPQVLYLDRYMHRNREITRIKREEIKRLKDYLTVLQQRLERYLSYGSGPKRFPLVDVLQYALEFASSKPVCTSPVDDIDASSPPSGSIPSQTLPSTTEQQGALSSELPSTSPSSVAAISSRSVIHKPFTQSRIPPDLPMHPAPRHITEEELSVLESCLHRWRTEIENDTRDLQESISRIHRTIELMYSDKSMIQVPYRLHAVLVHEGQANAGHYWAYIFDHRESRWMKYNDIAVTKSSWEELVRDSFGGYRNASAYCLMYINDKAQFLIQEEFNKETGQPLVGIETLPPDLRDFVEEDNQRFEKELEEWDAQLAQKALQEKLLASQKLRESETSVTTAQAAGDPEYLEQPSRSDFSKHLKEETIQIITKASHEHEDKSPETVLQSAIKLEYARLVKLAQEDTPPETDYRLHHVVVYFIQNQAPKKIIEKTLLEQFGDRNLSFDERCHNIMKVAQAKLEMIKPEEVNLEEYEEWHQDYRKFRETTMYLIIGLENFQRESYIDSLLFLICAYQNNKELLSKGLYRGHDEELISHYRRECLLKLNEQAAELFESGEDREVNNGLIIMNEFIVPFLPLLLVDEMEEKDILAVEDMRNRWCSYLGQEMEPHLQEKLTDFLPKLLDCSMEIKSFHEPPKLPSYSTHELCERFARIMLSLSRTPADGR
notes: source: E. coli Rosetta2(DE3)pLacI, purified (HisTrap, 3C protease, Resource Q, size exclusion)
B3 was tested, and the “stoichiometry N” value [5] was 4.

B4: Human USP28 (149-703) (domain or fragment, UniProt Q96RU2 149-703, looked up)
chain: PNPNDWRRVDGWPVGLKNVGNTCWFSAVIQSLFQLPEFRRLVLSYSLPQNVLENCRSHTEKRNIMFMQELQYLFALMMGSNRKFVDPSAALDLLKGAFRSSEEQQQDVSEFTHKLLDWLEDAFQLAVNVNSPRNKSENPMVQLFYGTFLTEGVREGKPFCNNETFGQYPLQVNGYRNLDECLEGAMVEGDVELLPSDHSVKYGQERWFTKLPPVLTFELSRFEFNQSLGQPEKIHNKLEFPQIIYMDRYMYRSKELIRNKRECIRKLKEEIKILQQKLERYVKYGSGPARFPLPDMLKYVIEFASTKPASESCPPESDTHMTLPLSSVHCSVSDQTSKESTSTESSSQDVESTFSSPEDSLPKSKPLTSSRSSMEMPSQPAPRTVTDEEINFVKTCLQRWRSEIEQDIQDLKTCIASTTQTIEQMYCDPLLRQVPYRLHAVLVHEGQANAGHYWAYIYNQPRQSWLKYNDISVTESSWEEVERDSYGGLRNVSAYCLMYINDKLPYFNAEAAPTESDQMSEVEALSVELKHYIQEDNWRFEQEVEEWEEEQSCKI
notes: also called USP28 catalytic domain; source: E. coli Rosetta2(DE3)pLacI, purified (HisTrap, 3C protease, Resource Q, size exclusion)
B4 was tested, and the “stoichiometry N” value [6] was 2.

B5: M. musculus USP25 (157-715) (domain or fragment, mouse (Mus musculus), UniProt P57080 157-715, looked up)
chain: NPYDRKRQEKAPVGLKNVGNTCWFSAVIQSLFNLLEFRRLVLNYKPPSNAQDLPRNQKEHRNLPFMRELRYLFALLVGTKRKYVDPSRAVEILKDAFKSNDSQQQDVSEFTHKLLDWLEDAFQMKAEEETDEEKPKNPMVELFYGRFLAMGVLEGKKFENTEMFGQYPLQVNGFKDLHECLEAAMIEGEIESLHSDNSGKSGQEHWFTELPPVLTFELSRFEFNQALGRPEKIHNKLEFPQVLYLDRYMHRNREITRIKREEIKRLKDYLTVLQQRLERYLSYGSGPKRFPLVDVLQYALEFASSKPVCTSPVDDIDASSSASGPLPSQSLPSTTEQQGPCASDLPGSSSPASGAALPLRSVIHKPFTQSRIPPDLPMHPAPRHITEEELCVLESCLHRWRTEIENDTRDLQESISRIHRTIELMYSDKSMIQVPYRLHAVLVHEGQANAGHYWAYIFDHRESRWMKYNDIAVTKSSWEELVRDSFGGYRNASAYCLMYIDDKAQFLIQEEFNKETGQALVGMETLPPDLRDFVEEDNQRFEKELEEWDTQLAQRSLQE
notes: also called USP25 catalytic domain from mouse; source: E. coli Rosetta2(DE3)pLacI, purified (HisTrap, 3C protease, Resource Q, size exclusion)
With B5 the binding result [2] was “binds” and the “stoichiometry N” value [7] was 4.

B6: G. gallus USP28 (143-706) (domain or fragment, chicken (Gallus gallus), UniProt Q5ZID5 143-706, looked up)
chain: SKQSDWKRVGDWPVGMKNIGNTCWFSAVIQSLFQLPQFRRLVLSYSFPPNVLESCRTRTGKRNIAFMQELQCLFALMLGTRRKFVDPSAALELLRDAFKSTEEQQQDVSEFTHKLLDWLEDAFQLAVNVRSPGDKSENPMVQLFYGTFLTEGVHEGNTFSKIETFGQYPLQVNGYRNLNECLEGAMVEGEMDEETATQSVKYVQERWFTKLPPVLTFELSRFEFNQSLGQPEKIHTKLEFPQTIFMDRYLYCSKELIQTKREEMKKLKEKMLVLQQKLERYMKYGSGPARFPLPDMLQYVLEFITTKPAGAVSSACVSSTEDSQMMDRQSQGESLILGTPSQPDSMLDGKDGKPEDEAVLLANSSPQQQLNAPLQPSEPPAEMSDCPAPHVVSEEEMNLVTTCLQRWRNEIEQDVRDLKESIARVSLSIDEMYSDPHLQQVPYHLHAVLVHEGQANAGHYWAFIYDQPRKSWLKYNDISVTESSWEELERDSFGGLRNASAYCLMYISDKVSHVVAGEGDGSEVGQFQKEVEALPPELRRYIQEDNWRLEQEAEEWEEEQSCKI
notes: USP28, chicken, residues 143-706; also called USP28 catalytic domain from chicken; source: E. coli Rosetta2(DE3)pLacI, purified (HisTrap, 3C protease, Resource Q, size exclusion)
With B6 the “stoichiometry N” value [7] was 2.

B7: Human USP25 (1-714) (domain or fragment, UniProt Q9UHP3 1-714, looked up)
chain: MTVEQNVLQQSAAQKHQQTFLNQLREITGINDTQILQQALKDSNGNLELAVAFLTAKNAKTPQQEETTYYQTALPGNDRYISVGSQADTNVIDLTGDDKDDLQRAIALSLAESNRAFRETGITDEEQAISRVLEASIAENKACLKRTPTEVWRDSRNPYDRKRQDKAPVGLKNVGNTCWFSAVIQSLFNLLEFRRLVLNYKPPSNAQDLPRNQKEHRNLPFMRELRYLFALLVGTKRKYVDPSRAVEILKDAFKSNDSQQQDVSEFTHKLLDWLEDAFQMKAEEETDEEKPKNPMVELFYGRFLAVGVLEGKKFENTEMFGQYPLQVNGFKDLHECLEAAMIEGEIESLHSENSGKSGQEHWFTELPPVLTFELSRFEFNQALGRPEKIHNKLEFPQVLYLDRYMHRNREITRIKREEIKRLKDYLTVLQQRLERYLSYGSGPKRFPLVDVLQYALEFASSKPVCTSPVDDIDASSPPSGSIPSQTLPSTTEQQGALSSELPSTSPSSVAAISSRSVIHKPFTQSRIPPDLPMHPAPRHITEEELSVLESCLHRWRTEIENDTRDLQESISRIHRTIELMYSDKSMIQVPYRLHAVLVHEGQANAGHYWAYIFDHRESRWMKYNDIAVTKSSWEELVRDSFGGYRNASAYCLMYINDKAQFLIQEEFNKETGQPLVGIETLPPDLRDFVEEDNQRFEKELEEWDAQLAQKALQE
notes: USP25, human, residues 1-714; tetrameric and dimeric species side by side; source: E. coli Rosetta2(DE3)pLacI, purified (HisTrap, 3C protease, Resource Q, size exclusion)
For B7, the “stoichiometry N” value [5] was 4 and 2.
